Assays:
[1] = test system: scFv-Fc_(CH3A) of B135 and B168 (D399L/K409W); experiment: non-reducing SDS-PAGE of coexpressed chains; scFv-Fc_(CH3A) and Fc_(CH3B) cotransfected at equivalent molar ratio in HEK293F, Protein A purified from supernatant after 6 days; heterodimer and homodimers told apart by mass, band intensities by ImageJ; conditions: other: non-reducing SDS-PAGE of coexpressed chains
[2] = test system: scFv-Fc_(CH3A) of B215 (K392R/K409R/D399L); experiment: as above; conditions: other: non-reducing SDS-PAGE of coexpressed chains
[3] = test system: scFv-Fc_(CH3A) of A146_(w/o W-VT) (K370D); experiment: as above; conditions: other: non-reducing SDS-PAGE of coexpressed chains
[4] = test system: scFv-Fc_(CH3A) of A109_(w/o W-VT) (K370M); experiment: as above; conditions: other: non-reducing SDS-PAGE of coexpressed chains
[5] = test system: scFv-Fc_(CH3A) of A146 (K370D/K409W); experiment: as above; conditions: other: non-reducing SDS-PAGE of coexpressed chains
[6] = test system: scFv-Fc_(CH3A) of B168_(w/o W-VT) (D399L); experiment: as above; conditions: other: non-reducing SDS-PAGE of coexpressed chains
[7] = test system: scFv-Fc_(CH3A) of B121 (D399E/K409W); experiment: as above; conditions: other: non-reducing SDS-PAGE of coexpressed chains
[8] = test system: scFv-Fc_(CH3A) of A107 and A108 (K370E/K409W); experiment: as above; conditions: other: non-reducing SDS-PAGE of coexpressed chains
[9] = test system: scFv-Fc_(CH3A) of B212 (K392I/D399L); experiment: as above; conditions: other: non-reducing SDS-PAGE of coexpressed chains
[10] = test system: scFv-Fc_(CH3A) of B240 (K392S/K409R/D399L); experiment: as above; conditions: other: non-reducing SDS-PAGE of coexpressed chains
[11] = test system: scFv-Fc_(CH3A) of A216 (E357G/S364W/K370E); experiment: as above; conditions: other: non-reducing SDS-PAGE of coexpressed chains
[12] = test system: scFv-Fc_(CH3A) of A241 (E357N/S364W/K370E); experiment: as above; conditions: other: non-reducing SDS-PAGE of coexpressed chains
[13] = test system: scFv-Fc_(CH3A) of A107_(w/o W-VT) (K370E); experiment: as above; conditions: other: non-reducing SDS-PAGE of coexpressed chains
[14] = test system: scFv-Fc_(CH3A) of A210 (E357A/S364Y/K370E); experiment: as above; conditions: other: non-reducing SDS-PAGE of coexpressed chains
[15] = test system: scFv-Fc_(CH3A) of A109 (K370M/K409W); experiment: as above; conditions: other: non-reducing SDS-PAGE of coexpressed chains
[16] = test system: scFv-Fc_(CH3A) of B256 (K392N/D399L); experiment: as above; conditions: other: non-reducing SDS-PAGE of coexpressed chains
[17] = test system: scFv-Fc_(CH3A) of B235 (K392C/D399L); experiment: as above; conditions: other: non-reducing SDS-PAGE of coexpressed chains
[18] = test system: scFv-Fc_(CH3A) of B239 (K392L/D399L); experiment: as above; conditions: other: non-reducing SDS-PAGE of coexpressed chains
[19] = test system: scFv-Fc_(CH3A) of A205 (E357D/S364W/K370E); experiment: as above; conditions: other: non-reducing SDS-PAGE of coexpressed chains
[20] = test system: scFv-Fc_(CH3A) of W-VT (K409W); experiment: as above; conditions: other: non-reducing SDS-PAGE of coexpressed chains
[21] = target: human neonatal Fc receptor (FcRn) (human) (UniProt P55899); experiment: SPR; human FcRn coated on the chip at approximately 1,000 response units; serially diluted Fc proteins applied; pH 6.0; mean ± SD of two independent experiments, at least 5 data sets each

Substance “Fc_(CH3B) of B168 (K392G/K409M/D399V/F405T)” has a heterodimer yield (%) [1] of 77.7%.
Fc_(CH3B) of B215 (D399W/K392G/K409M) was tested, and the heterodimer yield (%) [2] was 78.1%.
Fc_(CH3B) of A146_(w/o W-VT) (E357M) was tested, and the heterodimer yield (%) [3] was 71%.
In the case of “Fc_(CH3B) of A109_(w/o W-VT) (E357M/S364W)”, the heterodimer yield (%) [4] is reported as 61.6%.
Fc_(CH3B) of A146 (E357M/D399V/F405T) gave a heterodimer yield (%) [5] of 74.5%.
Work on “Fc_(CH3B) of B168_(w/o W-VT) (K392G/K409M)” yielded a heterodimer yield (%) [6] of 60.9%.
With Fc_(CH3B) of B121 (K392E/D399V/F405T) the heterodimer yield (%) [7] was 73.3%.
“Fc_(CH3B) of A108 (E357I/S364T/D399V/F405T)” gave a heterodimer yield (%) [8] of 70.5%.
Substance “Fc_(CH3B) of B212 and B240 (D399G/K392G/K409M)” has a heterodimer yield (%) [9] of 65.3% and a heterodimer yield (%) [10] of 83.3%.
Work on “Fc_(CH3B) of A107_(w/o W-VT), A216 and A241 (E357N)” yielded a heterodimer yield (%) [11] of 80.3%, a heterodimer yield (%) [12] of 81% and a heterodimer yield (%) [13] of 78.2%.
Fc_(CH3B) of A210 (E357N/K370H) showed a heterodimer yield (%) [14] of 80.8%.
For “Fc_(CH3B) of A109 (E357M/S364W/D399V/F405T)”, the heterodimer yield (%) [15] was 90.5%.
In the case of Fc_(CH3B) of B256 (D399V/K392G/K409M), the heterodimer yield (%) [16] is reported as 79.4%.
“Fc_(CH3B) of B135 (K392S/K409L/D399V/F405T)” was tested, and the heterodimer yield (%) [1] was 67.8%.
Work on Fc_(CH3B) of B235 (D399C/K392G/K409M) yielded a heterodimer yield (%) [17] of 89.4%.
Fc_(CH3B) of B239 (D399S/K392G/K409M) showed a heterodimer yield (%) [18] of 76.3%.
Fc_(CH3B) of A205 (E357N/K370R) showed a heterodimer yield (%) [19] of 88.8%.
Work on Fc_(CH3B) of A107 (E357N/D399V/F405T) yielded a heterodimer yield (%) [8] of 93.4%.
In the case of Fc_(CH3B) of W-VT (D399V/F405T), the heterodimer yield (%) [20] is reported as 60.8%.
“wild-type human IgG1 Fc homodimer (Fc-WT) (domain or fragment)” showed a Kd [21] of 35.6 nM, a koff [21] of 5.83e-05 s⁻¹ and a kon [21] of 1640 M⁻¹ s⁻¹.
